pKd: −log10 of the molar value. Read-outs that look alike come from different tables or passages of the source. One block for each substance: values may come before it.
Assays:
[1] = biological target: Coh (lacking ELP linker and ddFLN4 domains), ITC construct (R. champanellensis); experiment: ITC; 126 uM XMod-Doc injected (27 x 10 uL) into 16.1 uM Coh in the cell; 25 °C; TBS-Ca buffer (25 mM Tris, 72 mM NaCl, 1 mM CaCl2, pH 7.2)
[2] = biological target: Coh-ddFLN4-ELP-HIS-ybbr, AFM construct (R. champanellensis); experiment: AFM single-molecule force spectroscopy (AFM-SMFS); Coh construct covalently on the cantilever tip by its C-terminal ybbR tag, XMod-Doc construct covalently on the cover glass by its N-terminal ybbR tag; 200 ms dwell; constant pulling speed 100, 400, 1600, 6400 nm/s (mutants at 400 nm/s); TBS-Ca buffer; k0 from Bell-Evans or Dudko-Hummer-Szabo fits
[3] = biological target: Coh-ddFLN4-ELP-HIS-ybbr, AFM construct (R. champanellensis); experiment: as above; remark: listed apart in the source
[4] = biological target: Avi-Coh (E154C)-HIS labelled with maleimide-Cy3b, smFRET construct (R. champanellensis); experiment: FRET or BRET; single-molecule FRET in solution on a confocal microscope; labelled Coh (Cy3b) and XMod-Doc (AF647) mixed 1:1 at 1 uM, 1 min, diluted to 200 pM; 50 mM Tris pH 8, 100 mM NaCl, 1 mM CaCl2, Trolox, 1% glucose

pKd [1]: 9.00
stoichiometry N [1]: 1
Substance: XMod-Doc protein (lacking ELP linker and ddFLN4 domains), ITC construct (domain or fragment)

k0 (BE), pathway 1, high force rupture (XMod intact) [2]: 4.7e-08 s⁻¹
k0 (BE), pathway 2, low force rupture after XMod unfold [2]: 0.000743 s⁻¹
k0 (BE), pathway 3, low force rupture (XMod intact) [2]: 2.79e-05 s⁻¹
k0 (DHS, υ = 0.5), pathway 1, high force rupture (XMod intact) [2]: 9.39e-05 s⁻¹
k0 (DHS, υ = 0.5), pathway 2, low force rupture after XMod unfold [2]: 0.0152 s⁻¹
k0 (DHS, υ = 0.5), pathway 3, low force rupture (XMod intact) [2]: 0.831 s⁻¹
k0 (DHS, υ = 2/3), pathway 1, high force rupture (XMod intact) [2]: 0.000157 s⁻¹
k0 (DHS, υ = 2/3), pathway 2, low force rupture after XMod unfold [2]: 0.101 s⁻¹
k0 (DHS, υ = 2/3), pathway 3, low force rupture (XMod intact) [2]: 1.08 s⁻¹
percentage of curves in pathway 3 (binding mode B), 400 nm/s [2]: 19%
percentage of curves in pathway 3 (binding mode B), all pulling speeds [2]: 17 to 22%
rupture force, pathway 1 (XMod intact) [2]: 500 pN
rupture force, pathway 2 (after XMod unfolding) [2]: 200 pN
rupture force, pathway 3 (XMod intact) [2]: 200 pN
rupture force, pathway 1 (XMod intact) [3]: 500 to 600 pN
Substance: ybbr-ELP-ddFLN4-XMod-Doc-HIS (wild type), AFM construct (domain or fragment)

mean FRET efficiency, binding mode A [4]: 0.71
mean FRET efficiency, binding mode B [4]: 0.34
Substance: ybbr-XMod-Doc (WT, S199AzF)-HIS labelled with DBCO-AF647, smFRET construct (domain or fragment)
